Measured values reported in US20210309732A1 (ELIXIRON IMMUNOTHERAPEUTICS HONG KONG, published 2021).

The binders below were run against T1, recombinant human GM-CSF (human, UniProt P04141 18-144) (assay: ELISA on coated rhGM-CSF, UBA relative to 1D2).
T1 construct: also called rhGM-CSF; CSF2
Source text: Some of the residues in the CDRs are essential for epitope binding affinity and/or specificity. A number of computational methods were developed to detect these functional residues, generally known as ‘specificity-determining resides’ (SDRs). […] Based on the analysis, 7 amino acid residues in VH and 3 amino acid residues in VL were selected as the SDRs. The residues are labeled X₁ to X₁₀ for the ease of reference. The SDRs on VH are: Heavy chain D31 (HD31) (X₁), HK32 (X₂), HK54(X₃), HR100 (X₄), HY102 (X₅), HY103 (X₆) and HQ105 (X₇). The SDRs on VL are Light chain V32 (LV32) (X₈), LP94 (X₉) and LV95 (X₁₀). The SDRs were subsequently mutated by site-directed mutagenesis to other amino acids to generate mutant VH or VL clones. HEK293 cells were co-transfected with a vector encoding a mutant VH paired with a vector encoding a wild type VL or a vector encoding a wild type VH paired with a vector encoding a mutant VL. The antibody clones were harvested from the culture medium. The binding affinity of each antibody clone to human GM-CSF was tested by ELISA. The ELISA was done according to the following procedures. ELISA plate was coated with 50 μl of rhGM-CSF at 1 μg/mL. The plate was washed with 200 μl PBST for three times, followed by blocking with 1% BSA for 1 hour at room temperature. The antibody clones to be tested were diluted at 1:12000. 100 μl of the diluted antibodies were added to the cell at 100 μl/well. The plate was incubated at room temperature for 1 hour. The plate was then washed and incubated with 1:5000 diluted goat-anti-human secondary antibody conjugated with HRP at room temperature for one hour. The ELISA assay was developed with 100 μl developing buffer containing H₂O₂-Amplx Red per well in the dark for 5 min and the fluorescence intensity was read at Ex.530/Em.590 nm, with cutoff at 570 nm. The Unit Binding Activity (UBA) of each sample was calculated as the fluorescence signal/antibody clone dilution factor.

T1 sequence (P04141 18-144 limits assumed): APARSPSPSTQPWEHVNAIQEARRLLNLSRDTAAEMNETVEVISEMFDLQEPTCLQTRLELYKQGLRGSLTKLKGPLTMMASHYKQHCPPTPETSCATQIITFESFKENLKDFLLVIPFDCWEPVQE

binding affinity % of 1D2 [%] | Binder
66 | 1D2 SDR mutant HD31A (antibody, IgG1, V domains shown, also called X1 A) VH: QVQLVQSGAEVKKPGASVKVSCEASGYTFTAKYLHWVRQAPGQGLEWMAWINPKSGGTFYAQNFKGRVTVTRDTSINTAYLELTSLRLDDTSTYYCARGRDYYDQGAADLWGQGTMVTVSS VL: DIQLTQSPSSLSASVGDRVTITCRASQGINSVLAWYQQKPGKAPKLLLYAASKLESGVPSRFSGSGSGTDYTLTISSLQPEDFGTYYCQQYYSPVRTFGQGTKVEIKR
69 | 1D2 SDR mutant HD31P (antibody, IgG1, V domains shown, also called X1 P) VH: QVQLVQSGAEVKKPGASVKVSCEASGYTFTPKYLHWVRQAPGQGLEWMAWINPKSGGTFYAQNFKGRVTVTRDTSINTAYLELTSLRLDDTSTYYCARGRDYYDQGAADLWGQGTMVTVSS VL: DIQLTQSPSSLSASVGDRVTITCRASQGINSVLAWYQQKPGKAPKLLLYAASKLESGVPSRFSGSGSGTDYTLTISSLQPEDFGTYYCQQYYSPVRTFGQGTKVEIKR
94 | 1D2 SDR mutant HK32E (antibody, IgG1, V domains shown, also called X2 E) VH: QVQLVQSGAEVKKPGASVKVSCEASGYTFTDEYLHWVRQAPGQGLEWMAWINPKSGGTFYAQNFKGRVTVTRDTSINTAYLELTSLRLDDTSTYYCARGRDYYDQGAADLWGQGTMVTVSS VL: DIQLTQSPSSLSASVGDRVTITCRASQGINSVLAWYQQKPGKAPKLLLYAASKLESGVPSRFSGSGSGTDYTLTISSLQPEDFGTYYCQQYYSPVRTFGQGTKVEIKR
90 | 1D2 SDR mutant HK32D (antibody, IgG1, V domains shown, also called X2 D) VH: QVQLVQSGAEVKKPGASVKVSCEASGYTFTDDYLHWVRQAPGQGLEWMAWINPKSGGTFYAQNFKGRVTVTRDTSINTAYLELTSLRLDDTSTYYCARGRDYYDQGAADLWGQGTMVTVSS VL: DIQLTQSPSSLSASVGDRVTITCRASQGINSVLAWYQQKPGKAPKLLLYAASKLESGVPSRFSGSGSGTDYTLTISSLQPEDFGTYYCQQYYSPVRTFGQGTKVEIKR
86 | 1D2 SDR mutant HK32C (antibody, IgG1, V domains shown, also called X2 C) VH: QVQLVQSGAEVKKPGASVKVSCEASGYTFTDCYLHWVRQAPGQGLEWMAWINPKSGGTFYAQNFKGRVTVTRDTSINTAYLELTSLRLDDTSTYYCARGRDYYDQGAADLWGQGTMVTVSS VL: DIQLTQSPSSLSASVGDRVTITCRASQGINSVLAWYQQKPGKAPKLLLYAASKLESGVPSRFSGSGSGTDYTLTISSLQPEDFGTYYCQQYYSPVRTFGQGTKVEIKR
73 | 1D2 SDR mutant HD31R (antibody, IgG1, V domains shown, also called X1 R) VH: QVQLVQSGAEVKKPGASVKVSCEASGYTFTRKYLHWVRQAPGQGLEWMAWINPKSGGTFYAQNFKGRVTVTRDTSINTAYLELTSLRLDDTSTYYCARGRDYYDQGAADLWGQGTMVTVSS VL: DIQLTQSPSSLSASVGDRVTITCRASQGINSVLAWYQQKPGKAPKLLLYAASKLESGVPSRFSGSGSGTDYTLTISSLQPEDFGTYYCQQYYSPVRTFGQGTKVEIKR
74 | 1D2 SDR mutant HD31N (antibody, IgG1, V domains shown, also called X1 N) VH: QVQLVQSGAEVKKPGASVKVSCEASGYTFTNKYLHWVRQAPGQGLEWMAWINPKSGGTFYAQNFKGRVTVTRDTSINTAYLELTSLRLDDTSTYYCARGRDYYDQGAADLWGQGTMVTVSS VL: DIQLTQSPSSLSASVGDRVTITCRASQGINSVLAWYQQKPGKAPKLLLYAASKLESGVPSRFSGSGSGTDYTLTISSLQPEDFGTYYCQQYYSPVRTFGQGTKVEIKR
63 | 1D2 SDR mutant HK32F (antibody, IgG1, V domains shown, also called X2 F) VH: QVQLVQSGAEVKKPGASVKVSCEASGYTFTDFYLHWVRQAPGQGLEWMAWINPKSGGTFYAQNFKGRVTVTRDTSINTAYLELTSLRLDDTSTYYCARGRDYYDQGAADLWGQGTMVTVSS VL: DIQLTQSPSSLSASVGDRVTITCRASQGINSVLAWYQQKPGKAPKLLLYAASKLESGVPSRFSGSGSGTDYTLTISSLQPEDFGTYYCQQYYSPVRTFGQGTKVEIKR
61 | 1D2 SDR mutant HK32A (antibody, IgG1, V domains shown, also called X2 A) VH: QVQLVQSGAEVKKPGASVKVSCEASGYTFTDAYLHWVRQAPGQGLEWMAWINPKSGGTFYAQNFKGRVTVTRDTSINTAYLELTSLRLDDTSTYYCARGRDYYDQGAADLWGQGTMVTVSS VL: DIQLTQSPSSLSASVGDRVTITCRASQGINSVLAWYQQKPGKAPKLLLYAASKLESGVPSRFSGSGSGTDYTLTISSLQPEDFGTYYCQQYYSPVRTFGQGTKVEIKR
72 | 1D2 SDR mutant HD31W (antibody, IgG1, V domains shown, also called X1 W) VH: QVQLVQSGAEVKKPGASVKVSCEASGYTFTWKYLHWVRQAPGQGLEWMAWINPKSGGTFYAQNFKGRVTVTRDTSINTAYLELTSLRLDDTSTYYCARGRDYYDQGAADLWGQGTMVTVSS VL: DIQLTQSPSSLSASVGDRVTITCRASQGINSVLAWYQQKPGKAPKLLLYAASKLESGVPSRFSGSGSGTDYTLTISSLQPEDFGTYYCQQYYSPVRTFGQGTKVEIKR
47 | 1D2 SDR mutant HD31S (antibody, IgG1, V domains shown, also called X1 S) VH: QVQLVQSGAEVKKPGASVKVSCEASGYTFTSKYLHWVRQAPGQGLEWMAWINPKSGGTFYAQNFKGRVTVTRDTSINTAYLELTSLRLDDTSTYYCARGRDYYDQGAADLWGQGTMVTVSS VL: DIQLTQSPSSLSASVGDRVTITCRASQGINSVLAWYQQKPGKAPKLLLYAASKLESGVPSRFSGSGSGTDYTLTISSLQPEDFGTYYCQQYYSPVRTFGQGTKVEIKR
79 | 1D2 SDR mutant HD31C (antibody, IgG1, V domains shown, also called X1 C) VH: QVQLVQSGAEVKKPGASVKVSCEASGYTFTCKYLHWVRQAPGQGLEWMAWINPKSGGTFYAQNFKGRVTVTRDTSINTAYLELTSLRLDDTSTYYCARGRDYYDQGAADLWGQGTMVTVSS VL: DIQLTQSPSSLSASVGDRVTITCRASQGINSVLAWYQQKPGKAPKLLLYAASKLESGVPSRFSGSGSGTDYTLTISSLQPEDFGTYYCQQYYSPVRTFGQGTKVEIKR
57 | 1D2 SDR mutant HD31L (antibody, IgG1, V domains shown, also called X1 L) VH: QVQLVQSGAEVKKPGASVKVSCEASGYTFTLKYLHWVRQAPGQGLEWMAWINPKSGGTFYAQNFKGRVTVTRDTSINTAYLELTSLRLDDTSTYYCARGRDYYDQGAADLWGQGTMVTVSS VL: DIQLTQSPSSLSASVGDRVTITCRASQGINSVLAWYQQKPGKAPKLLLYAASKLESGVPSRFSGSGSGTDYTLTISSLQPEDFGTYYCQQYYSPVRTFGQGTKVEIKR
71 | 1D2 SDR mutant HD31V (antibody, IgG1, V domains shown, also called X1 V) VH: QVQLVQSGAEVKKPGASVKVSCEASGYTFTVKYLHWVRQAPGQGLEWMAWINPKSGGTFYAQNFKGRVTVTRDTSINTAYLELTSLRLDDTSTYYCARGRDYYDQGAADLWGQGTMVTVSS VL: DIQLTQSPSSLSASVGDRVTITCRASQGINSVLAWYQQKPGKAPKLLLYAASKLESGVPSRFSGSGSGTDYTLTISSLQPEDFGTYYCQQYYSPVRTFGQGTKVEIKR
74 | 1D2 SDR mutant HD31Q (antibody, IgG1, V domains shown, also called X1 Q) VH: QVQLVQSGAEVKKPGASVKVSCEASGYTFTQKYLHWVRQAPGQGLEWMAWINPKSGGTFYAQNFKGRVTVTRDTSINTAYLELTSLRLDDTSTYYCARGRDYYDQGAADLWGQGTMVTVSS VL: DIQLTQSPSSLSASVGDRVTITCRASQGINSVLAWYQQKPGKAPKLLLYAASKLESGVPSRFSGSGSGTDYTLTISSLQPEDFGTYYCQQYYSPVRTFGQGTKVEIKR
58 | 1D2 SDR mutant HD31G (antibody, IgG1, V domains shown, also called X1 G) VH: QVQLVQSGAEVKKPGASVKVSCEASGYTFTGKYLHWVRQAPGQGLEWMAWINPKSGGTFYAQNFKGRVTVTRDTSINTAYLELTSLRLDDTSTYYCARGRDYYDQGAADLWGQGTMVTVSS VL: DIQLTQSPSSLSASVGDRVTITCRASQGINSVLAWYQQKPGKAPKLLLYAASKLESGVPSRFSGSGSGTDYTLTISSLQPEDFGTYYCQQYYSPVRTFGQGTKVEIKR
63 | 1D2 SDR mutant HD31E (antibody, IgG1, V domains shown, also called X1 E) VH: QVQLVQSGAEVKKPGASVKVSCEASGYTFTEKYLHWVRQAPGQGLEWMAWINPKSGGTFYAQNFKGRVTVTRDTSINTAYLELTSLRLDDTSTYYCARGRDYYDQGAADLWGQGTMVTVSS VL: DIQLTQSPSSLSASVGDRVTITCRASQGINSVLAWYQQKPGKAPKLLLYAASKLESGVPSRFSGSGSGTDYTLTISSLQPEDFGTYYCQQYYSPVRTFGQGTKVEIKR
44 | 1D2 SDR mutant HD31T (antibody, IgG1, V domains shown, also called X1 T) VH: QVQLVQSGAEVKKPGASVKVSCEASGYTFTTKYLHWVRQAPGQGLEWMAWINPKSGGTFYAQNFKGRVTVTRDTSINTAYLELTSLRLDDTSTYYCARGRDYYDQGAADLWGQGTMVTVSS VL: DIQLTQSPSSLSASVGDRVTITCRASQGINSVLAWYQQKPGKAPKLLLYAASKLESGVPSRFSGSGSGTDYTLTISSLQPEDFGTYYCQQYYSPVRTFGQGTKVEIKR
